In one assay the target is T1, 4H344-bA.
T1 chain: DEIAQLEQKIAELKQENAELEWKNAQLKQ
Kind of assay: two-hybrid library CCNG1.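 Also: natural log of median RNA to DNA barcode read ratio; higher means stronger binding.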

Another assay concerns the target T2, 4H1193-bA.
T2 chain: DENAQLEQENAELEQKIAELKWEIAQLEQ
Kind of assay: two-hybrid library CCNG1.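 Also: natural log of median RNA to DNA barcode read ratio; higher means stronger binding.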

A further assay deals with T3, 4H363-bA.
T3 chain: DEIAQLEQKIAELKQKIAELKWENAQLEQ
The experiment in a line: two-hybrid library CCNG1.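 Also: natural log of median RNA to DNA barcode read ratio; higher means stronger binding.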

Another assay has as its target T4, 4H470-bA.
T4 chain: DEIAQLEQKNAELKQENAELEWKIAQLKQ
Kind of assay: two-hybrid library CCNG1.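 Also: natural log of median RNA to DNA barcode read ratio; higher means stronger binding.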

In a further assay the target is T5, 4H4038-bA.
T5 chain: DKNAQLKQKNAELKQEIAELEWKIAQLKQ
The experiment in a line: two-hybrid library CCNG1.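 Also: natural log of median RNA to DNA barcode read ratio; higher means stronger binding.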

Another assay concerns the target T6, 4H3907-bA.
T6 chain: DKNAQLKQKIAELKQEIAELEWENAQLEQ
The experiment in a line: two-hybrid library CCNG1.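 Also: natural log of median RNA to DNA barcode read ratio; higher means stronger binding.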

The target of another assay is T7, 4H1406-bA.
T7 chain: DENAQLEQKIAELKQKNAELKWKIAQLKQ
The experiment in a line: two-hybrid library CCNG1.

The next assay deals with T8, 4H3961-bA.
T8 chain: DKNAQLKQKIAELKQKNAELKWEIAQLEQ
The experiment in a line: two-hybrid library CCNG1.

A further assay addresses T9, 4H2568-bA.
T9 chain: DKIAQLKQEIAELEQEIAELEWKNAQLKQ
Kind of assay: two-hybrid library CCNG1.

For another assay, the target named is T10, 4H2745-bA.
T10 chain: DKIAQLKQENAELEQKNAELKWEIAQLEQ
Kind of assay: two-hybrid library CCNG1.

The target in the next assay is T11, 4H3592-bA.
T11 chain: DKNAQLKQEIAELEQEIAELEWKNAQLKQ
The experiment in a line: two-hybrid library CCNG1.

For another assay, the target named is T12, 4H3601-bA.
T12 chain: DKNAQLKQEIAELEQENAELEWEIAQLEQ
The experiment in a line: two-hybrid library CCNG1.

In another assay the target is T13, 4H1387-bA.
T13 chain: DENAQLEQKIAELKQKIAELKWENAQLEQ
The experiment in a line: two-hybrid library CCNG1.

For the next assay, the target named is T14, 4H1072-bA.
T14 chain: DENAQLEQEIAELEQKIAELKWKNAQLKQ
The experiment in a line: two-hybrid library CCNG1.

The next assay has as its target T15, 4H2619-bA.
T15 chain: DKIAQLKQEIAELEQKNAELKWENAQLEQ
Kind of assay: two-hybrid library CCNG1.

The target in a further assay is T16, 4H3843-bA.
T16 chain: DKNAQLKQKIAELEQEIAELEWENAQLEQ
Kind of assay: two-hybrid library CCNG1.

A further assay deals with T17, 4H568-bA.
T17 chain: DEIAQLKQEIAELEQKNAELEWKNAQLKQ
Kind of assay: two-hybrid library CCNG1.

A further assay addresses T18, 4H797-bA.
T18 chain: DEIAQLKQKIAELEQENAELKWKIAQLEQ
Kind of assay: two-hybrid library CCNG1.

Another assay addresses T19, 4H462-bA.
T19 chain: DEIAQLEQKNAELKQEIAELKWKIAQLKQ
The experiment in a line: two-hybrid library CCNG1.

A further assay has as its target T20, 4H1369-bA.
T20 chain: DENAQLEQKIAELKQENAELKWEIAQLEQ
Kind of assay: two-hybrid library CCNG1.

In a further assay the target is T21, 4H3606-bA.
T21 chain: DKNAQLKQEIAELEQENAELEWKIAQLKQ
The experiment in a line: two-hybrid library CCNG1.

For a further assay, the target named is T22, 4H953-bA.
T22 chain: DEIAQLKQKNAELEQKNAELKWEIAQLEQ
Kind of assay: two-hybrid library CCNG1.

The target of the next assay is T23, 4H918-bA.
T23 chain: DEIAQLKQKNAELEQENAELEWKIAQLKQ
The experiment in a line: two-hybrid library CCNG1.

For another assay, the target named is T24, 4H607-bA.
T24 chain: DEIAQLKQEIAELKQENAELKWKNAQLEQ
The experiment in a line: two-hybrid library CCNG1.

The next assay concerns the target T25, 4H1446-bA.
T25 chain: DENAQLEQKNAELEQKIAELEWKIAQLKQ
The experiment in a line: two-hybrid library CCNG1.

A further assay concerns the target T26, 4H2697-bA.
T26 chain: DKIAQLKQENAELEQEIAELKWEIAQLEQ
The experiment in a line: two-hybrid library CCNG1.

The target in the next assay is T27, 4H454-bH.
T27 chain: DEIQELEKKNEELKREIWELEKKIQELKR
Kind of assay: two-hybrid library CCNG1.

The target in the next assay is T28, 4H3189-bA.
T28 chain: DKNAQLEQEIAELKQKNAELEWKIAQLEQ
The experiment in a line: two-hybrid library CCNG1.

The target in another assay is T29, 4H2576-bA.
T29 chain: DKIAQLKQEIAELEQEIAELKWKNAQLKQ
The experiment in a line: two-hybrid library CCNG1.

Another assay addresses T30, 4H72-bA.
T30 chain: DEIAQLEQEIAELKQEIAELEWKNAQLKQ
The experiment in a line: two-hybrid library CCNG1.

The next assay has as its target T31, 4H370-bA.
T31 chain: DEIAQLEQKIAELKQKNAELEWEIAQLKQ
Kind of assay: two-hybrid library CCNG1.

Another assay has as its target T32, 4H3782-bA.
T32 chain: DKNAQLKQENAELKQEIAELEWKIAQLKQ
The experiment in a line: two-hybrid library CCNG1.

A further assay has as its target T33, 4H883-bA.
T33 chain: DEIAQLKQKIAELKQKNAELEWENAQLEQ
Kind of assay: two-hybrid library CCNG1.

A further assay concerns the target T34, P9A.
T34 chain: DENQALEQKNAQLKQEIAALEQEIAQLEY
Kind of assay: two-hybrid library CCNG1.

The target of the next assay is T35, 4H1845-bA.
T35 chain: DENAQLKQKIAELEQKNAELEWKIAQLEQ
Kind of assay: two-hybrid library CCNG1.

The target of another assay is T36, 4H2667-bA.
T36 chain: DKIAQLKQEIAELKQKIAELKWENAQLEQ
The experiment in a line: two-hybrid library CCNG1.

In a further assay the target is T37, 4H331-bA.
T37 chain: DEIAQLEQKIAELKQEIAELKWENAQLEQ
Kind of assay: two-hybrid library CCNG1.

The next assay addresses T38, 4H967-bA.
T38 chain: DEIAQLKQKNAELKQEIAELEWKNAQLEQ
Kind of assay: two-hybrid library CCNG1.

The target in a further assay is T39, 4H1328-bA.
T39 chain: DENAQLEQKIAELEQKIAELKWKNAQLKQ
The experiment in a line: two-hybrid library CCNG1.

Another assay has as its target T40, 4H2610-bA.
T40 chain: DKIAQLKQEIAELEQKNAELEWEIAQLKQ
Kind of assay: two-hybrid library CCNG1.

The target in the next assay is T41, 4H968-bN.
T41 chain: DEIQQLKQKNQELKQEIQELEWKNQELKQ
Kind of assay: two-hybrid library CCNG1.

In the next assay the target is T42, 4H687-bA.
T42 chain: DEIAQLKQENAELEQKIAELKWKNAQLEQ
The experiment in a line: two-hybrid library CCNG1.

The target of the next assay is T43, 4H4001-bA.
T43 chain: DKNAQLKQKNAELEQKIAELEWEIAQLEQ
Kind of assay: two-hybrid library CCNG1.

In a further assay the target is T44, 4H3855-AA.
T44 chain: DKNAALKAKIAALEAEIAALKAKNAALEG
Kind of assay: two-hybrid library CCmax. Particulars: mean of both orientations.

The next assay addresses T45, 4H4001-AA.
T45 chain: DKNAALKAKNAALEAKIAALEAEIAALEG
Kind of assay: two-hybrid library CCmax. Particulars: mean of both orientations.

In the next assay the target is T46, 4H3354-AA.
T46 chain: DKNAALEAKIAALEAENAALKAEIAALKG
The experiment in a line: two-hybrid library CCmax. Conditions: mean of both orientations.

The target in the next assay is T47, 4H953-AA.
T47 chain: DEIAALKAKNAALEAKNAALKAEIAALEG
The experiment in a line: two-hybrid library CCmax. Particulars: mean of both orientations.

The target in the next assay is T48, 4H918-AA.
T48 chain: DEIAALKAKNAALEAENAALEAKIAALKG
Kind of assay: two-hybrid library CCmax. Conditions: mean of both orientations.

A further assay concerns the target T49, 4H797-AA.
T49 chain: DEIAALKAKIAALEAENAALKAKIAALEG
The experiment in a line: two-hybrid library CCmax. Conditions: mean of both orientations.

The next assay concerns the target T50, 4H568-AA.
T50 chain: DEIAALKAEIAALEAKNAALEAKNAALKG
Kind of assay: two-hybrid library CCmax. Particulars: mean of both orientations.

The next assay concerns the target T51, 4H687-AA.
T51 chain: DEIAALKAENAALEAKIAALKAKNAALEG
The experiment in a line: two-hybrid library CCmax. Particulars: mean of both orientations.

The target in the next assay is T52, 4H717-AA.
T52 chain: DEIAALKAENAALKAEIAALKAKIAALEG
The experiment in a line: two-hybrid library CCmax. Conditions: mean of both orientations.

A further assay has as its target T53, 4H1446-AA.
T53 chain: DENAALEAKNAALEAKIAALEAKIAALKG
The experiment in a line: two-hybrid library CCmax.

The target in the next assay is T54, 4H3782-AA.
T54 chain: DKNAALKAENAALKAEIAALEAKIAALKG
Kind of assay: two-hybrid library CCmax. Conditions: mean of both orientations.

For another assay, the target named is T55, 4H3427-AA.
T55 chain: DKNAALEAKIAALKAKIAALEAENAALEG
The experiment in a line: two-hybrid library CCmax. Conditions: mean of both orientations.

In a further assay the target is T56, 4H3112-AA.
T56 chain: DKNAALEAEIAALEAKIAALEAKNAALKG
The experiment in a line: two-hybrid library CCmax. Conditions: mean of both orientations.

In a further assay the target is T57, 4H1845-AA.
T57 chain: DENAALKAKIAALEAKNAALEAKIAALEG
Kind of assay: two-hybrid library CCmax. Conditions: mean of both orientations.

The next assay has as its target T58, 4H967-AA.
T58 chain: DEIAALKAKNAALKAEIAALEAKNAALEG
Kind of assay: two-hybrid library CCmax. Conditions: mean of both orientations.

The target in a further assay is T59, 4H2442-AA.
T59 chain: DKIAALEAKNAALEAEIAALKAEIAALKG
Kind of assay: two-hybrid library CCmax. Conditions: mean of both orientations.

A further assay has as its target T60, 4H883-AA.
T60 chain: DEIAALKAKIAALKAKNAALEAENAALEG
Kind of assay: two-hybrid library CCmax. Particulars: mean of both orientations.

Take DENAQLEQEIAELEQKIAELKWKNAQLKQ [4H1072-bA]: the interaction score was -0.759 in the assay with 4H344-bA; 0.766 with 4H1193-bA; 1.21 with 4H363-bA; -1.2 with 4H470-bA; 1.71 with 4H4038-bA; 0.997 in the assay with 4H3907-bA. The interaction score with 4H1406-bA was 0.239; with 4H3961-bA it was 1.34; with 4H2568-bA, 1.85; with 4H2745-bA, -0.205; with 4H3592-bA, 1.81; with 4H3601-bA it was 0.34. In addition, the interaction score was 1.46 in the assay with 4H1387-bA, 0.969 with 4H1072-bA and 0.0458 with 4H2619-bA.
For the molecule DENAQLEQENAELEQKIAELKWEIAQLEQ [4H1193-bA], the interaction score in the assay with 4H3843-bA is 0.453; with 4H568-bA it was -1.33; with 4H797-bA it was -1.03; with 4H462-bA, 0.96; in the assay with 4H1369-bA, -1.1; with 4H1193-bA it was -1.02. The interaction score was -0.984 in the assay with 4H3606-bA; -1.01 with 4H953-bA; -1.33 with 4H918-bA; -0.928 with 4H607-bA; -0.515 with 4H1446-bA; -0.731 in the assay with 4H2697-bA. Further, the interaction score is 0.453 in the assay with 4H454-bH; -0.992 in the assay with 4H3189-bA; 1.08 with 4H2576-bA; -1.83 with 4H72-bA; -1.27 in the assay with 4H370-bA; 2.35 with 4H4038-bA. The interaction score was 1.7 with 4H3782-bA; -0.444 with 4H3907-bA; -0.805 with 4H883-bA; -0.0377 in the assay with 4H1406-bA; 0.624 with P9A; -0.841 with 4H1845-bA. For the same molecule, the interaction score with 4H2667-bA is -0.522; with 4H331-bA it was -1.28; with 4H967-bA it was -0.577; with 4H1328-bA, -0.132; in the assay with 4H2610-bA, -0.547; with 4H3592-bA, -0.214. Also, the interaction score was -0.992 with 4H3601-bA; -0.852 with 4H1387-bA; 1.16 with 4H968-bN; -0.956 with 4H687-bA; 0.926 with 4H4001-bA.
For the molecule DENAALEAKNAALEAKIAALEAKIAALKG [4H1446-AA], the interaction score in the assay with 4H3855-AA is -0.445; with 4H4001-AA, 2.23; in the assay with 4H3354-AA, -1.43; in the assay with 4H953-AA, -0.751; with 4H918-AA, -1.53; with 4H797-AA, -1.49. Besides, the interaction score with 4H568-AA was -1.7; with 4H687-AA, -1.79; with 4H717-AA, -1.15; in the assay with 4H1446-AA, 0.267; with 4H3782-AA, 0.114; with 4H3427-AA it was -0.719. The interaction score in the assay with 4H3112-AA was -0.365; with 4H1845-AA, -1.25; in the assay with 4H967-AA, -1.1; in the assay with 4H2442-AA it was -1.19; with 4H883-AA it was -1.54.

Values taken from paper PMC10397247.
